Test results published in patent publication US20110262454A1 (published 2011).

Experiments:
human CD38 on cells [1] = target: T1, human CD38 on cells (human, UniProt P28907 1-300); test: cell-based or functional assay
human CD38 on cells [2] = target: T1, human CD38 on cells; test: apparent KD, FACS titration on Ramos cells, non-linear regression
human CD38 on cells [3] = target: T1, human CD38 on cells; test: FACS binding on Ramos cells
human CD38 on cells [4] = target: T1, human CD38 on cells; test: FACS binding titration on Ramos cells

ADCC EC50, Ramos target cells, human NK effector cells, LDH release (human CD38 on cells [1])	CDC EC50, Raji-IMG cells, human complement 5% (human CD38 on cells [1])	Kd (human CD38 on cells [2])	apoptosis, Annexin V-positive Daudi cells after 24 h with 10 nM antibody (human CD38 on cells [1])	apoptosis, Annexin V-positive MOLP-8 cells (human CD38 on cells [1])	apoptosis, Annexin V-positive Ramos cells after subtraction of the non-treated control (human CD38 on cells [1])	Binder	CDC, specific viability of Daudi cells at 1.25 µg/mL or higher with complement (human CD38 on cells [1])	further results
1.3 ng/mL	5 ng/mL					ch38SB13 chimeric anti-CD38 antibody (antibody, V domains shown) VH: QIQLVQSGPELKKPGETVKISCKASGYTLTSYGMNWVKQAPGKGLKWMGWINTYTGEPTYADDFKGRFAFSLETSASTAFLQINNLKNEDTATYFCVRRGFAYWGQGTLVTVSA VL: NIVLTQSPASLAVSLGQRATISCRASESVEIYGNGFMNWFQQKPGQPPKLLIYRASNLESGIPARFSGSGSRTEFTLTIDPVEADDVATYYCQQINEDPFTFGSGTKLEIKR	65%	
1.3 ng/mL	10.1 ng/mL					ch38SB18 chimeric anti-CD38 antibody (antibody, V domains shown) VH: QIQLVQSGPELKKPGETVKISCKASGYTFTNSGMNWVKQAPGKGLKWMGWINTYTGEPTYADDFKGRFAFSLETSASSAYLQISNLKNEDTATYFCARRGFVYWGQGTLVTVSA VL: DIVLTQSPASLAVSLGQRATISCRASESVAIYGNSFLKWFQQKPGQPPKLLIYRASNLESGIPARFSGSGSGTDFTLTINPVEADDVATYYCQQINEDPYTFGGGTKLEIKR	85%	ADCC EC50, LP-1 multiple myeloma cells (human CD38 on cells [1]): 0.56 ng/mL; CDC EC50, LP-1 multiple myeloma cells (human CD38 on cells [1]): 32 ng/mL
		0.1 nM	> 30%	~50%	≥ 7%	38SB13 murine anti-CD38 monoclonal antibody (antibody, V domains shown, Murine hybridoma antibody purified by Protein A or G; also called hybridoma PTA-7667) VH: QIQLVQSGPELKKPGETVKISCKASGYTLTSYGMNWVKQAPGKGLKWMGWINTYTGEPTYADDFKGRFAFSLETSASTAFLQINNLKNEDTATYFCVRRGFAYWGQGTLVTVSA VL: NIVLTQSPASLAVSLGQRATISCRASESVEIYGNGFMNWFQQKPGQPPKLLIYRASNLESGIPARFSGSGSRTEFTLTIDPVEADDVATYYCQQINEDPFTFGSGTKLEIKR		
		0.1 nM	> 30%	~50%	≥ 7%	38SB18 murine anti-CD38 monoclonal antibody (antibody, V domains shown, Murine hybridoma antibody; also called hybridoma PTA-7669) VH: QIQLVQSGPELKKPGETVKISCKASGYTFTNSGMNWVKQAPGKGLKWMGWINTYTGEPTYADDFKGRFAFSLETSASSAYLQISNLKNEDTATYFCARRGFVYWGQGTLVTVSA VL: DIVLTQSPASLAVSLGQRATISCRASESVAIYGNSFLKWFQQKPGQPPKLLIYRASNLESGIPARFSGSGSGTDFTLTINPVEADDVATYYCQQINEDPYTFGGGTKLEIKR		
2.2 ng/mL	20 ng/mL					ch38SB30 chimeric anti-CD38 antibody (antibody, V domains shown) VH: QVQLQQSGPELVRPGASVKISCKTSGYAFSGSWMNWVKQRPGQGLEWIGRIYPGDGDIIYNGNFRDKVTLSADKSSNTAYMQLSSLTSVDSAVYFCSRWGTFTPSFDYWGQGTTLTVSS VL: DIVMTQSHKFLSTSVGDRVSITCKASQDVVTAVAWFQQKPGQSPKLLIYSASHRYTGVPDRFTGSGSGTDFTFTIISVQAEDLAVYYCQQHYTTPTTFGGGTKLDFRR	45%	
		0.16 nM	> 30%	~50%	≥ 7%	38SB30 murine anti-CD38 monoclonal antibody (antibody, V domains shown, Murine hybridoma antibody; also called hybridoma PTA-7666) VH: QVQLQQSGPELVRPGASVKISCKTSGYAFSGSWMNWVKQRPGQGLEWIGRIYPGDGDIIYNGNFRDKVTLSADKSSNTAYMQLSSLTSVDSAVYFCSRWGTFTPSFDYWGQGTTLTVSS VL: DIVMTQSHKFLSTSVGDRVSITCKASQDVVTAVAWFQQKPGQSPKLLIYSASHRYTGVPDRFTGSGSGTDFTFTIISVQAEDLAVYYCQQHYTTPTTFGGGTKLDFRR		
113 ng/mL	400 ng/mL					ch38SB39 chimeric anti-CD38 antibody (antibody, V domains shown) VH: NVQLVESGGGLVQPGGSRKLSCAASGFTFSNFGMHWVRQAPEKGLEWVAYIRSGSGTIYYSDTVKGRFTISRDNPKNTLFLQMTSLRSEDTAMYYCARSYYDFGAWFAYWGQGTLVTVSA VL: DIVMTQSQKFMSTSVGDRVSVTCKASQNVGTNVAWYQHKPGQSPKIMIYSASSRYSGVPDRFTGSGSGTLFTLTINNVQSEDLAEYFCQQYNSYPLTFGSGTKLEIKR	91%	
		3.03 nM	> 30%	~50%	≥ 7%	38SB39 murine anti-CD38 monoclonal antibody (antibody, V domains shown, Murine hybridoma antibody; also called hybridoma PTA-7671) VH: NVQLVESGGGLVQPGGSRKLSCAASGFTFSNFGMHWVRQAPEKGLEWVAYIRSGSGTIYYSDTVKGRFTISRDNPKNTLFLQMTSLRSEDTAMYYCARSYYDFGAWFAYWGQGTLVTVSA VL: DIVMTQSQKFMSTSVGDRVSVTCKASQNVGTNVAWYQHKPGQSPKIMIYSASSRYSGVPDRFTGSGSGTLFTLTINNVQSEDLAEYFCQQYNSYPLTFGSGTKLEIKR		
1.2 ng/mL	10 ng/mL					ch38SB31 chimeric anti-CD38 antibody (antibody, V domains shown, also called chimeric 38SB31) VH: DVKLVESGGGLVKPGGSLKLSCEASGFTFSSYTLSWVRQTPETRLEWVATISIGGRYTYYPDSVEGRFTISRDNAKNTLYLQMNSLKSEDTAMYYCTRDFNGYSDFWGQGTTLTVSS VL: DTVMTQSHKFISTSVGDRVSITCKASQVVGSAVAWYQQKPGQSPKLLIYWASTRHTGVPDRFTGSGSGTDFTLTISNVQSEDLADYFCQQYNSYPYTFGGGTKLEIKR	53%	ADCC EC50, LP-1 multiple myeloma cells (human CD38 on cells [1]): 0.24 ng/mL; CDC EC50, LP-1 multiple myeloma cells (human CD38 on cells [1]): 43 ng/mL; Kd (human CD38 on cells [3]): 0.12 nM
						hu38SB31 v1.1 humanized anti-CD38 antibody (antibody, V domains shown) VH: EVQLVESGGGLVKPGGSLRLSCEASGFTFSSYTLSWVRQTPGKGLEWVATISIGGRYTYYPDSVKGRFTISRDNAKNTLYLQMNSLKSEDTAMYYCTRDFNGYSDFWGQGTTLTVSS VL: DTVMTQSPSTISTSVGDRVSITCKASQVVGSAVAWYQQKPGQSPKLLIYWASTRHTGVPDRFTGSGSGTDFTLTISNVQSDDLADYFCQQYNSYPYTFGGGTKLEIKR		Kd (human CD38 on cells [3]): 0.13 nM
						hu38SB31 v1.2 humanized anti-CD38 antibody (antibody, V domains shown) VH: EVQLVESGGGLVKPGGSLRLSCEASGFTFSSYTLSWVRQTPGKGLEWVATISIGGRYTYYPDSVKGRFTISRDNAKNTLYLQMNSLKSEDTAMYYCTRDFNGYSDFWGQGTTLTVSS VL: DTVMTQSPSSISTSIGDRVSITCKASQVVGSAVAWYQQKPGQSPKLLIYWASTRHTGVPARFTGSGSGTDFTLTISNVQSEDLADYFCQQYNSYPYTFGGGTKLEIKR		Kd (human CD38 on cells [3]): 0.11 nM
		0.11 nM	> 30%	~50%	≥ 7%	38SB31 murine anti-CD38 monoclonal antibody (antibody, V domains shown, Murine hybridoma antibody; also called hybridoma PTA-7668) VH: DVKLVESGGGLVKPGGSLKLSCEASGFTFSSYTLSWVRQTPETRLEWVATISIGGRYTYYPDSVEGRFTISRDNAKNTLYLQMNSLKSEDTAMYYCTRDFNGYSDFWGQGTTLTVSS VL: DTVMTQSHKFISTSVGDRVSITCKASQVVGSAVAWYQQKPGQSPKLLIYWASTRHTGVPDRFTGSGSGTDFTLTISNVQSEDLADYFCQQYNSYPYTFGGGTKLEIKR		
1.8 ng/mL	28 ng/mL					ch38SB19 chimeric anti-CD38 antibody (antibody, V domains shown, also called chimeric 38SB19) VH: QVQLQQSGAELARPGTSVKLSCKASGYTFTDYWMQWVKQRPGQGLEWIGTIYPGDGDTGYAQKFKGKATLTADKSSKTVYMHLSSLASEDSAVYYCARGDYYGSNSLDYWGQGTSVTVSS VL: DIVMAQSHKFMSTSVGDRVSITCKASQDVSTVVAWYQQKPGQSPKRLIYSASYRYIGVPDRFTGSGSGTDFTFTISSVQAEDLAVYYCQQHYSPPYTFGGGTKLEIKR		Kd (human CD38 on cells [4]): 0.18 nM; ADCC EC50, LP-1 multiple myeloma cells (human CD38 on cells [1]): 0.34 ng/mL; CDC EC50, LP-1 multiple myeloma cells (human CD38 on cells [1]): 30 ng/mL
		0.12 nM	> 30%	~50%	≥ 7%	38SB19 murine anti-CD38 monoclonal antibody (antibody, V domains shown, also called mu38SB19; murine 38SB19) VH: QVQLQQSGAELARPGTSVKLSCKASGYTFTDYWMQWVKQRPGQGLEWIGTIYPGDGDTGYAQKFKGKATLTADKSSKTVYMHLSSLASEDSAVYYCARGDYYGSNSLDYWGQGTSVTVSS VL: DIVMAQSHKFMSTSVGDRVSITCKASQDVSTVVAWYQQKPGQSPKRLIYSASYRYIGVPDRFTGSGSGTDFTFTISSVQAEDLAVYYCQQHYSPPYTFGGGTKLEIKR		
